{"source": "patent US7041871", "molecular_target": "native human CD4 on cells (SupT1 T cell line; human PBL/PBMC) (human) (UniProt P01730)", "test": "ratio of BIAcore Ka on rCD4 to flow cytometry Ka on nCD4"}
{"substance": "chimeric Leu3a (antibody)", "values": [{"measurement": "Ration of Ka (rCD4/nCD4)", "value": 6.1}]}
